In publication PMC6235870:

Key:
[1] = target: CTD of MaSp1 from E. australis modified at C82 with AttoOxa11 (Euprosthenops australis); test: fluorescence chasing experiment (dissociation kinetics); 60, 120 and 180 nM CTD-AttoOxa11 dimers chased with 20 µM chemically reduced wild-type CTD, manual mixing, 298 K, emission at 677 nm; bi-exponential fit; dimer to monomers
[2] = target: CTD of MaSp1 from E. australis modified at C82 with AttoOxa11 (Euprosthenops australis); test: stopped-flow fluorescence spectroscopy (refolding and dimerisation of denatured monomers); sub-µM CTD-AttoOxa11 in 8 M urea mixed 1:10 into 50 mM phosphate pH 7.0, ionic strength 200 mM (KCl), 298 K; denatured monomers to dimeric intermediate I2
[3] = target: C-terminal domain (CTD) of major ampullate spidroin 1 (MaSp1) from Euprosthenops australis, wild type (Euprosthenops australis); test: far-UV CD equilibrium chemical denaturation at varying protein concentration; urea 0-10 M, CD at 222 nm, 5-30 µM CTD, 50 mM phosphate pH 7.0, ionic strength 200 mM (KCl), 298 K, reducing (1 mM DTE); three-state model N2-I2-D; dimeric intermediate to denatured monomers

Row | koff [1] [s⁻¹] | observed time constant of dissociation, first exponential, 60 nM [1] [s] | observed time constant of dissociation, first exponential, 120 nM [1] [s] | observed time constant of dissociation, first exponential, 180 nM [1] [s] | observed time constant of dissociation, second exponential, 60 nM [1] [s] | observed time constant of dissociation, second exponential, 120 nM [1] [s] | observed time constant of dissociation, second exponential, 180 nM [1] [s] | time constant of dissociation (mean weighted by amplitudes) [1] [s] | kon [2] [M⁻¹ s⁻¹] | stoichiometry N [3] | Substance
1 | 0.008 | 51 | 37 | 34 | 208 | 186 | 194 | 128 | 5.2e+07 |  | CTD of MaSp1 from E. australis modified at C82 with AttoOxa11 (domain or fragment)
2 |  |  |  |  |  |  |  |  |  | 2 | C-terminal domain (CTD) of major ampullate spidroin 1 (MaSp1) from Euprosthenops australis, wild type (domain or fragment)
